According to article PMC10823521:

Target: H3·H4 heterodimer (human H3.3 and H4) (human) (UniProt P84243)
Test: high-speed atomic force microscopy; purified nucleosomes, hexasomes and de novo tetrasomes on 601 DNA (200W100), 1.5-3.5 nM, on bare mica, imaged in 10-fold-diluted buffer A at 1-2 fps, room temperature; histone core volume tracked over time; DNA present

observation time until one H3·H4 dimer was dislodged from a de novo tetrasome: 2 min
Substance: H3·H4 heterodimer (human H3.3 and H4) (from UniProt P84243 1-136; P62805 1-103) (complex)
